# Measurements taken from PMC8481183, “Resonance assignment of coiled-coil 3 (CC3) domain of human STIM1” (Biomolecular Nmr Assignments, 2021).
# B1: human STIM1 coiled-coil3 (CC3) fragment (amino acids 388–430) (domain or fragment, UniProt Q13586 388-430, looked up)
# chain: NTLFGTFHVAHSSSLDDVDHKILTAKQALSEVTAALRERLHRW
# notes: Cloned in pGEX 4T-1 (GST tag with thrombin cleavage site); The NMR sample was 15N/13C labelled; Purification follows Rathner et al. 2018; also called STIM1 CC3; CC3 domain; source: E. coli BL21, purified (protocol of Rathner et al. 2018, slightly modified)
# Molecular target: the molecule itself
# Assay: circular dichroism; STIM1 CC3 alone in 20 mM Bis-Tris, pH 6.0, without TFE, 20 °C; ratio [CD]222/[CD]208 as coiled-coil index
protein,measurement,value
B1,binding result,binds
